Reference: patent publication CN114591427A (SHENZHEN LIGHT AND BIOTECHNOLOGY CO LTD; GUANGDONG PEOPLES …, dated 2022)

Molecular target: T1, MPT32蛋白 in protein extracts of clinical samples of tuberculosis patients (结核分枝杆菌 (Mycobacterium tuberculosis), UniProt P9WIR7 40-325)
T1 construct: Native antigen detected by western blot in patient samples; also called 结核分枝杆菌MPT32蛋白; 抗原蛋白
T1 sequence (looked up): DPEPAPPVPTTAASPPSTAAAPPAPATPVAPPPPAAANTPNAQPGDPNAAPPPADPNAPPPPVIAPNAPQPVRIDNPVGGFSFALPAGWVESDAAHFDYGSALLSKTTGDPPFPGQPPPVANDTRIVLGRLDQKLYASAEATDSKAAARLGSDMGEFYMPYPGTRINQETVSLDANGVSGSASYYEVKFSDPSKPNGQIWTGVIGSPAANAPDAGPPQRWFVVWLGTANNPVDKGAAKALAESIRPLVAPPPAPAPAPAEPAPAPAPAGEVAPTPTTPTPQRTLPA
Test: western blot of protein extracts of clinical samples

B1: 鼠抗MPT32蛋白单克隆抗体 (secreted by hybridoma cell line 13B12, CCTCC NO:C2021305) (antibody, V domains shown)
VH: QVQLQQSGAELVKPGASVKMSCKASGFTFTSYWINWVKQRPGQGLEWIGDLYPGRGITNYNEKFKPKATLTLDTSSSTAYMQLSSLTSEDSAVYYCSTGPYWGQGTILTVSS
VL: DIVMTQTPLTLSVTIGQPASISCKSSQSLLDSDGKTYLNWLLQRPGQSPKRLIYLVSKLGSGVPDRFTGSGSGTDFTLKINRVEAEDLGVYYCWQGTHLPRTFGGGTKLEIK
notes: also called 鼠抗MPT32单克隆抗体; MPT32蛋白抗体
  binding result: binds
